The domain aggregation screens of Martell et al. (2025)

Experiment: soluble fraction after stress (log2 fold change); higher = more stays soluble; pooled small domains, quantitative proteomics
Conditions: stress: 50 degC
How it was run: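 Each library was heated to 50°C as a stress step. The libraries, made up of small protein domains, were pooled and analysed at high throughput by quantitative proteomics. The reported value is the base-two logarithm of the fold change in each protein's soluble amount after stress, taken as a measure of aggregation propensity. The higher the value, the more protein stays in solution.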

HMLVSPLDEIPGIGRNRKKTLLNHFGSAKTIEGASLEDLKKVDGISELIAKKIYNYFHLNKNF
soluble fraction (log2): -0.411

HMLWTDTKYVTVPDFVGKEPKEIESSYLYNIEYHGEGTKVISQQPAAFSRTIEGGTVRLYLG
soluble fraction (log2): 0.0884

HMLYGRRFQVEGLNLERYLRAAADSGIPLKGARRFGRTLTGVAAEEHMAALEALARQGGWLFTPLEAVGAN
soluble fraction (log2): -0.22

HMLYKNIAKKLRFRINSDEFAIGDVLPTERQLMEEYQASRVSIRKAIDELVAIDLIEKKQGSGTYIKQKEV
soluble fraction (log2): -0.919

HMMESLGIRLKRLRKDKGLTQVELGKLSGVTGVTIGYWEKDLNEPGSKALSKLAQALGTTESYLLYGVS
soluble fraction (log2): -0.634

HMMNNKEIGTRIAVLRKGMGDSQAKLAERLDVSPQAVSKWETGQSLPDIGNLLKLSWLFRTSINHILEGS
soluble fraction (log2): -1.37

HMNADAPWSPFSPGFTGPMNRPVIGLVTKADLANPQRISLVESWLVQAGAQKVFVTSALENTGVDEMFIFL
soluble fraction (log2): -0.124

HMNADLDIQNVNGNTPLWEAVMRYRGDGFFIEQLLKNGANPDIKNNYGVSPKSLARTIANYDVRRFFN
soluble fraction (log2): -0.137

HMNADSLIGENIRISERVSNMDQTGMAVVHGQEWTVRTRNDNEIIEPGEEAKILAISGVKLIVEK
soluble fraction (log2): -0.119

HMNAESLIGDRAVVTVAIERNKRGRVDVTGQDWAATTRDGEEIKVGQEVLVVGISGVALIVEER
soluble fraction (log2): -0.426

HMNAIYKFVLGMIGKRSGVVTTLPSKKQVEFQANMLAEKFMQNGIDPNALKSPEQVKNVLANIDQ
soluble fraction (log2): -0.737

HMNALVAKYKQGVTEEQQQGQGIIIIKRVVVRDQEAWVYEKKIFDWGGVSYFRDKQRITASTFNQETAL
soluble fraction (log2): -2.86

HMNAQLTTQEAADLLNVSRPHLVKLLEDGELPFLRTGKHRRVRLADLLQFKNAREQASVQAMDELSRQAQ
soluble fraction (log2): 0.154

HMNARSTSYSDFIARVDKDEVASVRLDGETVTYQAADGTTYTTVKPESDPIAERLIAKGIEVNVVRQ
soluble fraction (log2): -0.49

HMNASITVPDVRNLTVKQASEQLLASGFTPIPYAATKDGVGNDIVYAQDPPPSVLARSGDQITITYNPA
soluble fraction (log2): 0.0329

HMNASTVTLENFEGAKYDDVYGKYDYQFSVTYEQTDKYESGVIISQKPEAGTKIIKGSQVSLVVAT
soluble fraction (log2): 0.0657

HMNASVIADLFRQTGASVMIHGHTHRPDIHALEANGDAAFRAVLGAWHTEGSMIRVTQDDVTLIAFP
soluble fraction (log2): 0.0376

HMNATLEQLTQREREIAVLMAEGLTNAQIGSRLNVSMASVKAHLSHIFTKLGVDNRVSAAMMVL
soluble fraction (log2): -0.654

HMNATPDMERYWASSAAEGRALEPLYAVSRGDGGEPLWWSPSRAQAERMAREEGGPLTVDRIDPP
soluble fraction (log2): -0.0411

HMNAVYAEERRAYILAALEKRGTVHSYELAEQMGVSRETIRRDIMELSNRGLLVKTHGGAIST
soluble fraction (log2): -0.686

HMNAYEVLIPNIYIGQRVDQTLASLFPQFSRSRLQNWLARGNLLIDGEIIKPKTKVLGGEQIIILDT
soluble fraction (log2): -1.83

HMNDAEEKAEAIEGVKNFMANMEKTDIDFKSKESVLLEQVEEIRKNYPVAQWPVIVKQLYNNIGRL
soluble fraction (log2): 0.159

HMNDIDKFVAALVDQDTMAGTNRAFDENDIQTMKNMSSIEDVKQYAVANGLSSGKVNNALISAGL
soluble fraction (log2): 0.156

HMNDIQIILQEAVARLPKKQQLVFNMKYFDHLKYQEISEILGTSVGGLKASYFQAVKKIENYIINKH
soluble fraction (log2): -2.38

HMNDRLFQILYLLLEKGTMTAPELSRALEVSVRTIYRDIDALSLAGVPVYATQGKNGGVSLLPNY
soluble fraction (log2): -1.24

HMNDTLQEYFEALERLKSNNPINVPKNTKINNDSVALEAGRKRGSIKKSREIFAELIEAINNAS
soluble fraction (log2): -0.0859

HMNDVEAIDDALKDLHKVSPDLAALVEMKFFGGMTEPEISEILGVSERTVRREWEKARAALLVLLE
soluble fraction (log2): -1.41

HMNDVHELPYSSFIEMVERGHVISVTVKHINIEFESTKNENYRTIAPQAMTPPYLELLLKNKDSVKVTFLP
soluble fraction (log2): -1.69

HMNDVLVGAIPESASGSRLDKVMPSVFPPYSRSQLQVWLKQGRILMGNGIPSPRLIVSGGEVLSLVVPELP
soluble fraction (log2): -0.971

HMNEDFSEIIAAVKKFAVDNLSLSTLSDEELEEQIKTITDNMIGNRYVSIKNRVDIAQQVFSSIR
soluble fraction (log2): -0.0581

HMNEMEFAQRLRQFRKAKNLTQQELADRLGVSNKSVSRWESGSYPDVGTLVALARALGVTVDELLDPKA
soluble fraction (log2): 0.0532

HMNEMEWVAKLIDQLPERERMILQLREIEQYEFDQIASLMEIPEGTVRVYLSRIRKKIKKQFIEIQSH
soluble fraction (log2): 0.0739

HMNENFPYRLKEMVVVQSRTWPGINKPGGVGQVMKINPEAGTVNVKYVLGGSEKNIELKYVTSNDLNSK
soluble fraction (log2): -0.536

HMNENYNLSKREKEVLDLLVNGKSYKVIATELAISYETVHSHIKKIYHKLHVSSIGEAVSKTIKQKIL
soluble fraction (log2): -1.58

HMNEPITIALREAEEAANKILNEGVHSVELSPQNGYVRRLQHELIARYGLTSASRGSDPSRRVSVGAN
soluble fraction (log2): -0.212

HMNEQKVSSLLTPRQLAFIDEYLIDFNGAQAAIRAGYSHKTAGPQAARLLVNVNISRMIAERIEARNK
soluble fraction (log2): -1.7

HMNEQVAVVSGSQVNVRSGPGTTSAVVGQVSKGDNLPVLNQSGDWYQIKLPGGNAGWVAGWLVSLRPTT
soluble fraction (log2): -0.0873

HMNESPVLAVLTPTERKVASLVAEGLTNQAIAARMILAEGTVKNHVSTLLHKLQAPDRTALALTLYKAFQ
soluble fraction (log2): -0.469
